Data taken from patent publication US20060183195A1.

How the values were obtained:
[1] = target: recombinant soluble human CD4 (human) (UniProt P01730); test: SPR, sCD4 amine-coupled to sensor chip, antibody flowed over
[2] = target: native human CD4 on the cell surface (human) (UniProt P01730); test: flow cytometry, serial dilutions on SupT1 cells, half-maximal fluorescence

## Leu3a (antibody)
[1]
  koff: 4.2e-05 s⁻¹

## chimeric Leu3a (antibody)
[2]
  Ka: 5e+09 M⁻¹
